molecular target: Kit, the receptor for SCF (UniProt P10721); assay: cell-based or functional assay
Sequence (P10721 26-976 limits assumed): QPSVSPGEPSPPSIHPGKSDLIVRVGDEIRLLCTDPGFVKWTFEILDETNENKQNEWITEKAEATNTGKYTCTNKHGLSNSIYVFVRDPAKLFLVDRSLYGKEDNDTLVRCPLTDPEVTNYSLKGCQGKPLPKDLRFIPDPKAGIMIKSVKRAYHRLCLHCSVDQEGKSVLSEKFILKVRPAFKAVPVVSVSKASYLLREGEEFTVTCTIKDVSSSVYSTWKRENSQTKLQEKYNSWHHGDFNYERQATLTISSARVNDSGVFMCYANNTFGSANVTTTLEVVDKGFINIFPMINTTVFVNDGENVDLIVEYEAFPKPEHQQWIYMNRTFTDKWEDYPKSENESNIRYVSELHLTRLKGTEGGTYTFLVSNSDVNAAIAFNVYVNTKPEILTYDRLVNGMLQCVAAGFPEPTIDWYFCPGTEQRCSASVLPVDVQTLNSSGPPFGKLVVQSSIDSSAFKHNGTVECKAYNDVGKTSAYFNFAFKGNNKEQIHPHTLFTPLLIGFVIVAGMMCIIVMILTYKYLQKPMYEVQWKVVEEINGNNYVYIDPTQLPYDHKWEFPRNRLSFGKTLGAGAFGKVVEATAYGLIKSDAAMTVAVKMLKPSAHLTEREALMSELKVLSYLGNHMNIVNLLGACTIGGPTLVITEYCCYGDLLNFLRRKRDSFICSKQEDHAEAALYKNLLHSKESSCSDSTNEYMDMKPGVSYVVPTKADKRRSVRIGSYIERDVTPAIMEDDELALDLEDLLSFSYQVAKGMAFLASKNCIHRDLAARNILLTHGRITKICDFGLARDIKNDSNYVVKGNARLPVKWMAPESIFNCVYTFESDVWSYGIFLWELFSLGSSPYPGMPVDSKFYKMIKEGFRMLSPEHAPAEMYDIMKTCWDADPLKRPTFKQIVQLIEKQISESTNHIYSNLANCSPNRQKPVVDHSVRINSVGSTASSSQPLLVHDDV

For “SCF(K62C) (from UniProt P21583 26-166) (ligand)”, which Biological Activity (Approximate, compared to wild type SCF) (fold lower than wild type SCF) is on record?
The Biological Activity (Approximate, compared to wild type SCF) (fold lower than wild type SCF) was 7.

With “SCF(K78N, N81K) (from UniProt P21583 26-166) (ligand)” as the substance, how does the Biological Activity (Approximate, compared to wild type SCF) (fold lower than wild type SCF) read?
Its Biological Activity (Approximate, compared to wild type SCF) (fold lower than wild type SCF) is 3.

“SCF(D25C) (from UniProt P21583 26-166) (ligand)” was tested. Which Biological Activity (Approximate, compared to wild type SCF) (fold lower than wild type SCF) did it give?
The Biological Activity (Approximate, compared to wild type SCF) (fold lower than wild type SCF) was 100.

“SCF(R117A, I118A) (from UniProt P21583 26-166) (ligand)” was tested. Which Biological Activity (Approximate, compared to wild type SCF) (fold lower than wild type SCF) did it give?
Its Biological Activity (Approximate, compared to wild type SCF) (fold lower than wild type SCF) is 10.

— patent US6904369
